From US20140087995A1 (published 2014)
Numbered stars: 1 amine (or outer) side, 2 acyl side, 3 side chain; on linkers, the order of the positions; unused ones are H or OH. Bridge positions count the residues as written; N and C are the ends. Side chains are listed from the residue outwards. Ends that are not written are not given here. * marks the point of attachment. C20 diacid = O=C(O)CCCCCCCCCCCCCCCCCCC(=O)*; γGlu = O=C(O)[C@H](CCC(=O)[*:2])N[*:1]

T1: rat calcitonin receptor (rat, UniProt P32214 25-516)
T1 construct: whole, on cells; In cell membranes prepared from transiently transfected BHK tk'ts 13 cells (Assay VIII); also called rCTR; rat calcitonin (a) receptor
T1 sequence (looked up): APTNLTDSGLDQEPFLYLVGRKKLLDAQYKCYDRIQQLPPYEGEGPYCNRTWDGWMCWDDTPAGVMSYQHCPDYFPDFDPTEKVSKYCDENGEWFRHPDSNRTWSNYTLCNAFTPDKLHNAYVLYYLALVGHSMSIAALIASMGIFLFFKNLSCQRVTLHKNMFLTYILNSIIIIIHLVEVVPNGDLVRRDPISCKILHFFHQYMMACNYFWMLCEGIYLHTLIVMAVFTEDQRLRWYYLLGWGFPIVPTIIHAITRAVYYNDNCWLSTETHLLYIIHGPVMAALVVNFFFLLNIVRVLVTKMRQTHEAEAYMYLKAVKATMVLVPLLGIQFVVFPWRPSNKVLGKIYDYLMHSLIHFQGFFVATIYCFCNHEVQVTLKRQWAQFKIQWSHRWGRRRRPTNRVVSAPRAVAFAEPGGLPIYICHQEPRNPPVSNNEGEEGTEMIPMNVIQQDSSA

T2: human calcitonin receptor (human, UniProt P30988 25-474)
T2 construct: whole, on cells; Cell membranes from the stably transfected cell line (Assay VII); also called hCTR; hCT
T2 sequence (looked up): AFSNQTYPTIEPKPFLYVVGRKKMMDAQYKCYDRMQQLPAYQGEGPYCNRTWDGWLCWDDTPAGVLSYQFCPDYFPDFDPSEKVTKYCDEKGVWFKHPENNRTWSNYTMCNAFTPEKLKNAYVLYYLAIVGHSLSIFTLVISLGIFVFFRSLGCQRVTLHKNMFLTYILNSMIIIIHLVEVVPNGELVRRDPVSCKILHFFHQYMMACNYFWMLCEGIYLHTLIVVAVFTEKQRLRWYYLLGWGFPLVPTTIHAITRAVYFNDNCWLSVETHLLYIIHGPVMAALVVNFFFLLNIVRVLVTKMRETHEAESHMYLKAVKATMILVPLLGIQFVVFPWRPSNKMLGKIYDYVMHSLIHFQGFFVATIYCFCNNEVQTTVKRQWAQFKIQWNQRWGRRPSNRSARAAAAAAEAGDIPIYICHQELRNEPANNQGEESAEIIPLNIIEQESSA

T3: rat amylin receptor (rat calcitonin receptor + rat RAMP 3) (rat, UniProt P32214 25-516; Q9JJ73 23-147)
T3 construct: whole, on cells; Receptor complex in cell membranes prepared from transiently transfected BHK tk'ts 13 cells (Assay VI); also called rAmylin-R; rat amylin 3(a) receptor
T3 sequence (looked up) 1: T1 sequence (looked up)
T3 sequence (looked up) 2: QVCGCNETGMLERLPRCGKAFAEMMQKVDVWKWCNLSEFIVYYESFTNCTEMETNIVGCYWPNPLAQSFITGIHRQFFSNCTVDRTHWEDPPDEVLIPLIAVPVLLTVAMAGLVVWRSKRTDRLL

B1: N^ε1-[(4S)-4-carboxy-4-(19-carboxynonadecanoylamino)butanoyl]-[Asp14,Arg17,Pro21,Pro27,Pro34,Arg35]-h-amylin (peptide)
peptide: K([γGlu-C20 diacid])CNTATCATQRLADFLRHSSPNFGAIPSSTNVGPRTY-NH2
modifications: disulfide 2-7; N-terminus assumed
SMILES: CC[C@H](C)[C@H](NC(=O)[C@H](C)NC(=O)CNC(=O)[C@H](Cc1ccccc1)NC(=O)[C@H](CC(N)=O)NC(=O)[C@@H]1CCCN1C(=O)[C@H](CO)NC(=O)[C@H](CO)NC(=O)[C@H](Cc1c[nH]cn1)NC(=O)[C@H](CCCNC(=N)N)NC(=O)[C@H](CC(C)C)NC(=O)[C@H](Cc1ccccc1)NC(=O)[C@H](CC(=O)O)NC(=O)[C@H](C)NC(=O)[C@H](CC(C)C)NC(=O)[C@H](CCCNC(=N)N)NC(=O)[C@H](CCC(N)=O)NC(=O)[C@@H](NC(=O)[C@H](C)NC(=O)[C@@H]1CSSC[C@H](NC(=O)[C@@H](N)CCCCNC(=O)CC[C@H](NC(=O)CCCCCCCCCCCCCCCCCCC(=O)O)C(=O)O)C(=O)N[C@@H](CC(N)=O)C(=O)N[C@@H]([C@@H](C)O)C(=O)N[C@@H](C)C(=O)N[C@@H]([C@@H](C)O)C(=O)N1)[C@@H](C)O)C(=O)N1CCC[C@H]1C(=O)N[C@@H](CO)C(=O)N[C@@H](CO)C(=O)N[C@H](C(=O)N[C@@H](CC(N)=O)C(=O)N[C@H](C(=O)NCC(=O)N1CCC[C@H]1C(=O)N[C@@H](CCCNC(=N)N)C(=O)N[C@H](C(=O)N[C@@H](Cc1ccc(O)cc1)C(N)=O)[C@@H](C)O)C(C)C)[C@@H](C)O
B2: N^ε1-[(4S)-4-carboxy-4-(19-carboxynonadecanoylamino)butanoyl]-[Glu14,Arg17,Pro21,Pro27,His35]-h-amylin (peptide)
peptide: K([γGlu-C20 diacid])CNTATCATQRLAEFLRHSSPNFGAIPSSTNVGSHTY-NH2
modifications: disulfide 2-7; N-terminus assumed
SMILES: CC[C@H](C)[C@H](NC(=O)[C@H](C)NC(=O)CNC(=O)[C@H](Cc1ccccc1)NC(=O)[C@H](CC(N)=O)NC(=O)[C@@H]1CCCN1C(=O)[C@H](CO)NC(=O)[C@H](CO)NC(=O)[C@H](Cc1c[nH]cn1)NC(=O)[C@H](CCCNC(=N)N)NC(=O)[C@H](CC(C)C)NC(=O)[C@H](Cc1ccccc1)NC(=O)[C@H](CCC(=O)O)NC(=O)[C@H](C)NC(=O)[C@H](CC(C)C)NC(=O)[C@H](CCCNC(=N)N)NC(=O)[C@H](CCC(N)=O)NC(=O)[C@@H](NC(=O)[C@H](C)NC(=O)[C@@H]1CSSC[C@H](NC(=O)[C@@H](N)CCCCNC(=O)CC[C@H](NC(=O)CCCCCCCCCCCCCCCCCCC(=O)O)C(=O)O)C(=O)N[C@@H](CC(N)=O)C(=O)N[C@@H]([C@@H](C)O)C(=O)N[C@@H](C)C(=O)N[C@@H]([C@@H](C)O)C(=O)N1)[C@@H](C)O)C(=O)N1CCC[C@H]1C(=O)N[C@@H](CO)C(=O)N[C@@H](CO)C(=O)N[C@H](C(=O)N[C@@H](CC(N)=O)C(=O)N[C@H](C(=O)NCC(=O)N[C@@H](CO)C(=O)N[C@@H](Cc1c[nH]cn1)C(=O)N[C@H](C(=O)N[C@@H](Cc1ccc(O)cc1)C(N)=O)[C@@H](C)O)C(C)C)[C@@H](C)O
B3: N^ε1-[(4S)-4-carboxy-4-(19-carboxynonadecanoylamino)butanoyl]-[Asp14,Arg17,Pro21,Pro27,Pro34,Glu35]-h-amylin (peptide)
peptide: K([γGlu-C20 diacid])CNTATCATQRLADFLRHSSPNFGAIPSSTNVGPETY-NH2
modifications: disulfide 2-7; N-terminus assumed
SMILES: CC[C@H](C)[C@H](NC(=O)[C@H](C)NC(=O)CNC(=O)[C@H](Cc1ccccc1)NC(=O)[C@H](CC(N)=O)NC(=O)[C@@H]1CCCN1C(=O)[C@H](CO)NC(=O)[C@H](CO)NC(=O)[C@H](Cc1c[nH]cn1)NC(=O)[C@H](CCCNC(=N)N)NC(=O)[C@H](CC(C)C)NC(=O)[C@H](Cc1ccccc1)NC(=O)[C@H](CC(=O)O)NC(=O)[C@H](C)NC(=O)[C@H](CC(C)C)NC(=O)[C@H](CCCNC(=N)N)NC(=O)[C@H](CCC(N)=O)NC(=O)[C@@H](NC(=O)[C@H](C)NC(=O)[C@@H]1CSSC[C@H](NC(=O)[C@@H](N)CCCCNC(=O)CC[C@H](NC(=O)CCCCCCCCCCCCCCCCCCC(=O)O)C(=O)O)C(=O)N[C@@H](CC(N)=O)C(=O)N[C@@H]([C@@H](C)O)C(=O)N[C@@H](C)C(=O)N[C@@H]([C@@H](C)O)C(=O)N1)[C@@H](C)O)C(=O)N1CCC[C@H]1C(=O)N[C@@H](CO)C(=O)N[C@@H](CO)C(=O)N[C@H](C(=O)N[C@@H](CC(N)=O)C(=O)N[C@H](C(=O)NCC(=O)N1CCC[C@H]1C(=O)N[C@@H](CCC(=O)O)C(=O)N[C@H](C(=O)N[C@@H](Cc1ccc(O)cc1)C(N)=O)[C@@H](C)O)C(C)C)[C@@H](C)O

Target: T1, rat calcitonin receptor
Experiment: ratio of binding IC50s: rat calcitonin receptor (Assay VIII) over rat amylin receptor (Assay VI)

Row | Ratio rCT/rAmylin binding | Binder
1 | 116 | B1
2 | 22.7 | B2
3 | 62 | B3

Target: T2, human calcitonin receptor
Experiment: ratio of binding IC50s: human calcitonin receptor (Assay VII) over human amylin receptor (Assay V)
Description: The resulting pellet was resuspended, homogenized and centrifuged (20.000 rpm, 15 min) in a buffer containing 20 mM Na-HEPES and 0.1 mM EDTA (pH 7.4, buffer 2). The resulting pellet was resuspended in buffer 2 and protein concentration was measured (BCA protein Assay, Pierce). The homogenate was kept cold during the whole procedure. The membranes were kept at −80° C. until use. The assay was performed in a 384 well Optiplate (PerkinElmer) in a total volume of 40 ul. Membranes were mixed with SPA beads. Final concentration of membranes 35 ng/μL final and SPA beads was 0.05 mg/well. Test-compounds were dissolved in DMSO and further diluted in assay buffer (50 mM Hepes, pH 7.4, 1 mM CaCl2, 5 mM MgCl₂, 0.1% OA and 0.02% Tween20). […] The final mixture was incubated with shaking at 400 rpm for 120 min at 25° C. prior to centrifugation (1500 rpm, 10 min). Samples were analyzed on TopCounter™ (Packard). The IC₅₀ was calculated using (one site binding competition analysis) GraphPad Prism5 as a measure of receptor affinity.
Membranes were prepared in the following way; the cells were rinsed with PBS and incubated with Versene for approximately 5 min before harvesting. The cells were flushed with PBS and the cell-suspension was centrifuged for 5 min at 1000 rpm. Cells were homogenized (Ultrathurrax) in a buffer containing 20 mM Na-HEPES and 10 mM EDTA (pH 7.4) and centrifuged at 20.000 rpm for 15 min. The resulting pellet was resuspended, homogenized and centrifuged (20.000 rpm, 15 min) in a buffer containing 20 mM Na-HEPES and 0.1 mM EDTA (pH 7.4, buffer 2). The resulting pellet was resuspended in buffer 2 and protein concentration was measured (BCA protein Assay, Pierce). The homogenate was kept cold during the whole procedure. The membranes were kept at −80° C. until use. Assay was performed in a 384 well Optiplate (PerkinElmer) in a total volume of 40 ul. Membranes were mixed with SPA beads.

Row | Ratio hCT/hAmylin binding | Binder
4 | 151 | B1
5 | 26.4 | B2
6 | 16.7 | B3

Target: T1, rat calcitonin receptor
Experiment: SPA competition binding, displacement of 125I-Calcitonin from membranes of BHK tk'ts 13 cells with rat calcitonin receptor (Assay VIII)

Row | IC50 | Binder
7 | 58.5 nM | B1
8 | 26.3 nM | B2
9 | 18.6 nM | B3

Target: T3, rat amylin receptor (rat calcitonin …)
Experiment: SPA competition binding, displacement of 125I-rat amylin from membranes of BHK tk'ts 13 cells with rat calcitonin receptor + rat RAMP 3 (Assay VI)
Description: The binding assay was performed using scintillation proximity assay (SPA) beads (RPNQ0001) from PerkinElmer and cell membranes from the Amylin 3(a)/CRE-luc cells (as described in Assay (II)) were used. Membranes were prepared in the following way; the cells were rinsed with PBS and incubated with Versene for approximately 5 min before harvesting. The cells were flushed with PBS and the cell-suspension was centrifuged for 5 min at 1000 rpm. Cells were homogenized (ultrathurrax) in a buffer containing 20 mM Na-HEPES and 10 mM EDTA (pH 7.4) and centrifuged at 20.000 rpm for 15 min. The resulting pellet was resuspended, homogenized and centrifuged (20.000 rpm, 15 min) in a buffer containing 20 mM Na-HEPES and 0.1 mM EDTA (pH 7.4, buffer 2). The resulting pellet was resuspended in buffer 2 and protein concentration was measured (BCA protein Assay, Pierce). The homogenate was kept cold during the whole procedure. The membranes were kept at −80° C. until use. The assay was performed in a 384 well Optiplate (PerkinElmer) in a total volume of 40 ul. Membranes were mixed with SPA beads. Final concentration of membranes 35 ng/μL final and SPA beads was 0.05 mg/well. Test-compounds were dissolved in DMSO and further diluted in assay buffer (50 mM Hepes, pH 7.4, 1 mM CaCl2, 5 mM MgCl₂, 0.1% OA and 0.02% Tween20). […] The final mixture was incubated with shaking at 400 rpm for 120 min at 25° C. prior to centrifugation (1500 rpm, 10 min). Samples were analyzed on TopCounter™ (Packard). The IC₅₀ was calculated using (one site binding competition analysis) GraphPad Prism5 as a measure of receptor affinity.
Cells were grown in DMEM with 10% FBS and 1% Pen/Strep. Approximately 48 hours after transfection, the cells were harvested and membranes were prepared.

Row | IC50 | Binder
10 | 0.504 nM | B1
11 | 1.16 nM | B2
12 | 0.3 nM | B3
